Laboratory results published in patent US20190085082A1 (CANCER RESEARCH TECHNOLOGY, published 2019).

What was measured:
[1] = target: T1, murine CLEC14A-Fc fusion protein (mouse, UniProt Q8VCP9 22-386); experiment: ELISA of hybridoma supernatants on absorbed antigen
T1 construct: extracellular domain; also called CM; mCLEC14A-Fc; not shown: human Fc tag from the pcDNA3-Fc plasmid
T1 sequence (looked up): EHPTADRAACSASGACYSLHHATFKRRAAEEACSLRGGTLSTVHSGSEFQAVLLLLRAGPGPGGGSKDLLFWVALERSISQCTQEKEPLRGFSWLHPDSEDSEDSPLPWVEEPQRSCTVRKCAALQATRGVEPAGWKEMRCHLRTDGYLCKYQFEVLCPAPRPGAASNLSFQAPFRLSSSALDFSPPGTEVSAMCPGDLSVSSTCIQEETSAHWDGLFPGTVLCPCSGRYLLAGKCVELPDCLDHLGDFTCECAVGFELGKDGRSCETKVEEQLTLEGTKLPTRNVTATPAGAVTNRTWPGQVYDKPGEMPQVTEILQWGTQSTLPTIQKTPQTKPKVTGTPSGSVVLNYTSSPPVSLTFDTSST
Procedure: More than 500 HAT-resistant hybridoma clones from each mouse were obtained. All of the clone supernatants were tested twice with 4 days interval by ELISA against three absorbed antigens (CM, CH and Fc). […] The positives were cloned 2-4 times by the limiting dilution method, propagated in culture flasks and injected into mice for ascites. One clone (CRT-3) was the result of immunisation with CLEC14a human-AP (CHAP), and the other clone (CRT-2) was the result of immunisation with CLEC14a mouse-AP (CM-AP).

[2] = target: T2, full length human CLEC14A on cells (engineered CHO, SEND or 293 cells; HUVECs) (human, UniProt Q86T13 22-490); experiment: fluorescence microscopy of HUVEC treated with CRT-3, antibody localisation at 0 and 90 minutes
T2 construct: HUVECs express it naturally; also called huCLEC
T2 sequence: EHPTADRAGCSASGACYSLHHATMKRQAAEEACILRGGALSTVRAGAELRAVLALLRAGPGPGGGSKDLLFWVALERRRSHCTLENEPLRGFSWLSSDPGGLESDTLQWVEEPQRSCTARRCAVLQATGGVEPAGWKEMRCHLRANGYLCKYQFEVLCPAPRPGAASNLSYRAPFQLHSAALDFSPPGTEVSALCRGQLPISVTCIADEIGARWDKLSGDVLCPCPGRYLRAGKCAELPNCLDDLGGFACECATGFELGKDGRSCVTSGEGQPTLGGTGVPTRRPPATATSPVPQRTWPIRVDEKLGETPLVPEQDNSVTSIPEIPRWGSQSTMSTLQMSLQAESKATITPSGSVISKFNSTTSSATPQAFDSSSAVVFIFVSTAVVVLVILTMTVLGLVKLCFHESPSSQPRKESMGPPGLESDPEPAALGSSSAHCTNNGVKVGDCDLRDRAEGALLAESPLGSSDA

[3] = target: T3, thrombomodulin (CD141), wild type, with C-terminal GFP tag, expressed on HEK293T cells (UniProt P07204 19-575); experiment: flow cytometry, HEK293T cells transfected with thrombomodulin (C-terminal GFP tag, GFP-positive cells gated)
T3 construct: whole, on cells; also called WT CD141; VVT CD141; not shown: C-terminal GFP tag
T3 sequence (P07204 19-575): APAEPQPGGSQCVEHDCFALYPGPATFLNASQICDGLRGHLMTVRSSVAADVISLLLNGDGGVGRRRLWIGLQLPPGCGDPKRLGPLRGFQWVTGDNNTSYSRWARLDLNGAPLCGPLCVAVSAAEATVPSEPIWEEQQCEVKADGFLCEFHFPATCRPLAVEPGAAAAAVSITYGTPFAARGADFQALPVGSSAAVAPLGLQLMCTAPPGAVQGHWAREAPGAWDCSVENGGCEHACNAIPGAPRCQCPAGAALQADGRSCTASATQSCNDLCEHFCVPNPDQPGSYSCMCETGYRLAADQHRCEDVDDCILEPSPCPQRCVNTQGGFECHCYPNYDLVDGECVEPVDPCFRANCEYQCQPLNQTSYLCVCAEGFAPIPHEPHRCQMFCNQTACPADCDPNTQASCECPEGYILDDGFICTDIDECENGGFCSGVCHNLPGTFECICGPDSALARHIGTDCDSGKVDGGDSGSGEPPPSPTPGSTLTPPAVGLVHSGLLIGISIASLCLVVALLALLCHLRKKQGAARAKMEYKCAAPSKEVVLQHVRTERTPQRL

B1: CRT-3 anti-CLEC14A monoclonal antibody (antibody, IgG1, V domains shown)
VH: EVQLQQSGTVLARPGASVKMSCKASGYTFTSYWMHWVKQRPGQGLEWIGAIYPGNSDTSYNQKFKGKAKLTAVTSTSTAYMELSSLTNEDSAVFYCTHYYGSDYAMDYWGQGTSVTV
VL: QIVLTQSPAIMSASLGERVTMTCTASSSVSSSYLHWYQQKPGSSPKLWIYSTSNLASGVPARFSGSGSGTSYSLTISSMEAEDAATYYCHQYHRSPRTFGGGTKLEIKR
B1: binds [1]; binds [2]; no binding [3].
